According to patent publication US20190330336A1:

Columns and labels:
[1] = molecular target: human LAG3-Fc, R&D Systems #2319-L3 (human) (UniProt P18627); test: SPR (Biacore), antibody captured on anti-Flag chip, human LAG3-Fc analyte, 25 C, 1:1 fit
[2] = molecular target: HIS-tagged (ACRO) or biotinylated recombinant human LAG3 protein (human) (UniProt P18627); test: FACS competition: antibody inhibits rhLAG3 binding to MHCII on DAUDI cells
Sequence of HIS-tagged (ACRO) or biotinylated recombinant human LAG3 protein (human) (P18627 23-450 limits assumed): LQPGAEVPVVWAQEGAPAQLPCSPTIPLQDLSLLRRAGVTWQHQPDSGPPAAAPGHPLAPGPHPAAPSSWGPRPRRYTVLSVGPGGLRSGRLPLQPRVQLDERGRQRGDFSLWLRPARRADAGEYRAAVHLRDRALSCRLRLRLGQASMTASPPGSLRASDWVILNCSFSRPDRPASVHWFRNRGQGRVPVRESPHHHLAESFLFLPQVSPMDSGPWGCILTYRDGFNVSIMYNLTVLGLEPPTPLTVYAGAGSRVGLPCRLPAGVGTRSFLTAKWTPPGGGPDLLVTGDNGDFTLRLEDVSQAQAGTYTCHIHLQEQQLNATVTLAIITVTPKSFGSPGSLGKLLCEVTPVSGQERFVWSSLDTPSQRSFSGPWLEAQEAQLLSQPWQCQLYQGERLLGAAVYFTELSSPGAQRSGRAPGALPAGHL

Sequence of human LAG3-Fc, R&D Systems #2319-L3 (human) (P18627 23-450): as the sequence (P18627 23-450 limits assumed) above

B1: SRP1627-A02 (scFv, from a related filing, V domains shown, part only)
VH: QVQLVQSGAEVKKPGSSVKVSCKASGFNINDYFMHWVRQAPGQGLEWIARIDPWNGDTEYAPKFQGRVTITADESTSTAYMELSSLRSEDTAVYYCGMSDALDYWGQGTLVTVSS
VL: DVVMTQSPLSLPVTLGQPASISCKSSQSLLDSDGKTYLNWFQQRPGQSPRRLIYLVSKLDSGVPDRFSGSGSGTDFTLKISRVEAEDVGVYYCSHGNPVPQTFGQGTKVEIK
[1]
  Kd: 43.3 nM
  koff: 0.071 s⁻¹
  kon: 1.64e+06 M⁻¹ s⁻¹
[2]
  IC50: 1.7 nM
